# Measurements taken from PMC4529235.
# B1: ASIC1a-ΔCCt (H8-hASIC1a-C466A/C471A/C497A/C528Stop) [human] / itself (parent)
# chain: MELKAEEEEVGGVQPVSIQAFASSSTLHGLAHIFSYERLSLKRALWALCFLGSLAVLLCVCTERVQYYFHYHHVTKLDEVAASQLTFPAVTLCNLNEFRFSQVSKNDLYHAGELLALLNNRYEIPDTQMADEKQLEILQDKANFRSFKPKPFNMREFYDRAGHDIRDMLLSCHFRGEVCSAEDFKVVFTRYGKCYTFNSGRDGRPRLKTMKGGTGNGLEIMLDIQQDEYLPVWGETDETSFEAGIKVQIHSQDEPPFIDQLGFGVAPGFQTFVACQEQRLIYLPPPWGTCKAVTMDSDLDFFDSYSITACRIDCETRYLVENCNCRMVHMPGDAPYCTPEQYKECADPALDFLVEKDQEYCVCEMPCNLTRYGKELSMVKIPSKASAKYLAKKFNKSEQYIGENILVLDIFFEVLNYETIEQKKAYEIAGLLGDIGGQMGLFIGASILTVLELFDYAYEVIKHKLARRGKAQKEAKRSSADKGVALSLDDVKRHNPAESLRGHPAGMTYAANILPHHPARGTFEDFT
# Variants of: B1
# Test: BMOE crosslinking at the cell surface, SDS-PAGE under reducing conditions, anti-His-tag western blotting, band densitometry
# Details: with itself; mean ±SEM, n = 4; read off a plot
row,relative band intensity (densitometry),Variant
1,0.22,MELKAEEEEVGGVQPVSIQAFASSSTLHGLAHIFSYERLSLKRALWALCFLGSLAVLLVVCTERVQYYFHYHHVTKLDEVAASQLTFPAVTLCNLNEFRFSQVSKNDLYHAGELLALLNNRYEIPDTQMADEKQLEILQDKANFRSFKPKPFNMREFYDRAGHDIRDMLLSCHFRGEVCSAEDFKVVFTRYGKCYTFNSGRDGRPRLKTMKGGTGNGLEIMLDIQQDEYLPVWGETDETSFEAGIKVQIHSQDEPPFIDQLGFGVAPGFQTFVACQEQRLIYLPPPWGTCKAVTMDSDLDFFDSYSITACRIDCETRYLVENCNCRMVHMPGDAPYCTPEQYKECADPALDFLVEKDQEYCVCEMPCNLTRYGKELSMVKIPSKASAKYLAKKFNKSEQYIGENILVLDIFFEVLNYETIEQKKAYEIAGLLCDIGGQMGLFIGASILTVLELFDYAYEVIKHKLARRGKAQKEAKRSSADKGVALSLDDVKRHNPAESLRGHPAGMTYAANILPHHPARGTFEDFT [chain 1 G433C C59V]
2,0.18,MELKAEEEEVGGVQPVSIQAFASSSTLHGLAHIFSYERLSLKRALWALCFLGSLAVLLVVSTERVQYYFHYHHVTKLDEVAASQLTFPAVTLCNLNEFRFSQVSKNDLYHAGELLALLNNRYEIPDTQMADEKQLEILQDKANFRSFKPKPFNMREFYDRAGHDIRDMLLSCHFRGEVCSAEDFKVVFTRYGKCYTFNSGRDGRPRLKTMKGGTGNGLEIMLDIQQDEYLPVWGETDETSFEAGIKVQIHSQDEPPFIDQLGFGVAPGFQTFVACQEQRLIYLPPPWGTCKAVTMDSDLDFFDSYSITACRIDCETRYLVENCNCRMVHMPGDAPYCTPEQYKECADPALDFLVEKDQEYCVCEMPCNLTRYGKELSMVKIPSKASAKYLAKKFNKSEQYIGENILVLDIFFEVLNYETIEQKKAYEIAGLLCDIGGQMGLFIGASILTVLELFDYAYEVIKHKLARRGKAQKEAKRSSADKGVALSLDDVKRHNPAESLRGHPAGMTYAANILPHHPARGTFEDFT [chain 1 G433C C59V C61S]
